Earlier results on one substance are cited in patent US20250205311A1, “PHARMACEUTICAL COMPOSITIONS OF SEMAGLUTIDE AND THE METHODS OF USE THEREOF” (PENTIDE THERAPEUTICS LIMITED, priority 2022, published 2025).

For the data set the following is noted: oral tablet.

Regarding “N6,26-{18-[N-(17-carboxyheptadecanoyl)-L-glutamyl]-1 0-oxo-3,6, 12, 15-tetraoxa-9, 18-diazaoctadecanoyl}-[8-(2-amino-2-propanoic acid), 34-L-arginine] human glucagon-like peptide 1 (7-37) [semaglutide]”, the oral bioavailability was 0.4-1%.
